Results from patent publication US20160002331A1.
pKd: −log10 of the molar value. Read-outs that look alike come from different tables or passages of the source.

Key:
[1] = biological target: full-length human Notch1 expressed on the cell surface (human) (UniProt P46531); assay: cell-based or functional assay
[2] = biological target: Notch1 receptor with L1601P mutation (MOLT-4 cells) (UniProt P46531); assay: cell-based or functional assay
[3] = biological target: Notch1 receptor with L1594P/D1610V mutations (DND-41 cells) (UniProt P46531); assay: cell-based or functional assay
[4] = biological target: Notch1 receptor with L1594P mutation (ALL-SIL cells) (UniProt P46531); assay: cell-based or functional assay
[5] = biological target: Notch1 receptor with a 12 amino acid insertion at position 1595 (CCRF-CEM cells) (UniProt P46531); assay: cell-based or functional assay
[6] = biological target: Notch1 receptor with a 17 amino acid insertion at position 1740 (Jurkat cells) (UniProt P46531); assay: cell-based or functional assay
[7] = biological target: full-length mouse Notch1 expressed on the cell surface of U-2 OS cells (mouse) (UniProt Q01705); assay: cell-based or functional assay
[8] = biological target: Notch1 receptor with L1575P mutation (HPB-ALL cells) (UniProt P46531); assay: cell-based or functional assay
[9] = biological target: full-length human Notch1 expressed on the cell surface (human) (UniProt P46531); assay: cell-based or functional assay; remark: listed apart in the source
[10] = biological target: full-length mouse Notch1 expressed on the cell surface of U-2 OS cells (mouse) (UniProt Q01705); assay: cell-based or functional assay; remark: listed apart in the source
[11] = biological target: human Notch1 NRR_Avi_His recombinant protein (human) (UniProt P46531); assay: SPR (Biacore T100), antibody captured by anti-human IgG-Fc, NRR_Avi_His as analyte, 1:1 Langmuir model

Sequence of full-length mouse Notch1 expressed on the cell surface of U-2 OS cells (mouse) (Q01705 19-2531): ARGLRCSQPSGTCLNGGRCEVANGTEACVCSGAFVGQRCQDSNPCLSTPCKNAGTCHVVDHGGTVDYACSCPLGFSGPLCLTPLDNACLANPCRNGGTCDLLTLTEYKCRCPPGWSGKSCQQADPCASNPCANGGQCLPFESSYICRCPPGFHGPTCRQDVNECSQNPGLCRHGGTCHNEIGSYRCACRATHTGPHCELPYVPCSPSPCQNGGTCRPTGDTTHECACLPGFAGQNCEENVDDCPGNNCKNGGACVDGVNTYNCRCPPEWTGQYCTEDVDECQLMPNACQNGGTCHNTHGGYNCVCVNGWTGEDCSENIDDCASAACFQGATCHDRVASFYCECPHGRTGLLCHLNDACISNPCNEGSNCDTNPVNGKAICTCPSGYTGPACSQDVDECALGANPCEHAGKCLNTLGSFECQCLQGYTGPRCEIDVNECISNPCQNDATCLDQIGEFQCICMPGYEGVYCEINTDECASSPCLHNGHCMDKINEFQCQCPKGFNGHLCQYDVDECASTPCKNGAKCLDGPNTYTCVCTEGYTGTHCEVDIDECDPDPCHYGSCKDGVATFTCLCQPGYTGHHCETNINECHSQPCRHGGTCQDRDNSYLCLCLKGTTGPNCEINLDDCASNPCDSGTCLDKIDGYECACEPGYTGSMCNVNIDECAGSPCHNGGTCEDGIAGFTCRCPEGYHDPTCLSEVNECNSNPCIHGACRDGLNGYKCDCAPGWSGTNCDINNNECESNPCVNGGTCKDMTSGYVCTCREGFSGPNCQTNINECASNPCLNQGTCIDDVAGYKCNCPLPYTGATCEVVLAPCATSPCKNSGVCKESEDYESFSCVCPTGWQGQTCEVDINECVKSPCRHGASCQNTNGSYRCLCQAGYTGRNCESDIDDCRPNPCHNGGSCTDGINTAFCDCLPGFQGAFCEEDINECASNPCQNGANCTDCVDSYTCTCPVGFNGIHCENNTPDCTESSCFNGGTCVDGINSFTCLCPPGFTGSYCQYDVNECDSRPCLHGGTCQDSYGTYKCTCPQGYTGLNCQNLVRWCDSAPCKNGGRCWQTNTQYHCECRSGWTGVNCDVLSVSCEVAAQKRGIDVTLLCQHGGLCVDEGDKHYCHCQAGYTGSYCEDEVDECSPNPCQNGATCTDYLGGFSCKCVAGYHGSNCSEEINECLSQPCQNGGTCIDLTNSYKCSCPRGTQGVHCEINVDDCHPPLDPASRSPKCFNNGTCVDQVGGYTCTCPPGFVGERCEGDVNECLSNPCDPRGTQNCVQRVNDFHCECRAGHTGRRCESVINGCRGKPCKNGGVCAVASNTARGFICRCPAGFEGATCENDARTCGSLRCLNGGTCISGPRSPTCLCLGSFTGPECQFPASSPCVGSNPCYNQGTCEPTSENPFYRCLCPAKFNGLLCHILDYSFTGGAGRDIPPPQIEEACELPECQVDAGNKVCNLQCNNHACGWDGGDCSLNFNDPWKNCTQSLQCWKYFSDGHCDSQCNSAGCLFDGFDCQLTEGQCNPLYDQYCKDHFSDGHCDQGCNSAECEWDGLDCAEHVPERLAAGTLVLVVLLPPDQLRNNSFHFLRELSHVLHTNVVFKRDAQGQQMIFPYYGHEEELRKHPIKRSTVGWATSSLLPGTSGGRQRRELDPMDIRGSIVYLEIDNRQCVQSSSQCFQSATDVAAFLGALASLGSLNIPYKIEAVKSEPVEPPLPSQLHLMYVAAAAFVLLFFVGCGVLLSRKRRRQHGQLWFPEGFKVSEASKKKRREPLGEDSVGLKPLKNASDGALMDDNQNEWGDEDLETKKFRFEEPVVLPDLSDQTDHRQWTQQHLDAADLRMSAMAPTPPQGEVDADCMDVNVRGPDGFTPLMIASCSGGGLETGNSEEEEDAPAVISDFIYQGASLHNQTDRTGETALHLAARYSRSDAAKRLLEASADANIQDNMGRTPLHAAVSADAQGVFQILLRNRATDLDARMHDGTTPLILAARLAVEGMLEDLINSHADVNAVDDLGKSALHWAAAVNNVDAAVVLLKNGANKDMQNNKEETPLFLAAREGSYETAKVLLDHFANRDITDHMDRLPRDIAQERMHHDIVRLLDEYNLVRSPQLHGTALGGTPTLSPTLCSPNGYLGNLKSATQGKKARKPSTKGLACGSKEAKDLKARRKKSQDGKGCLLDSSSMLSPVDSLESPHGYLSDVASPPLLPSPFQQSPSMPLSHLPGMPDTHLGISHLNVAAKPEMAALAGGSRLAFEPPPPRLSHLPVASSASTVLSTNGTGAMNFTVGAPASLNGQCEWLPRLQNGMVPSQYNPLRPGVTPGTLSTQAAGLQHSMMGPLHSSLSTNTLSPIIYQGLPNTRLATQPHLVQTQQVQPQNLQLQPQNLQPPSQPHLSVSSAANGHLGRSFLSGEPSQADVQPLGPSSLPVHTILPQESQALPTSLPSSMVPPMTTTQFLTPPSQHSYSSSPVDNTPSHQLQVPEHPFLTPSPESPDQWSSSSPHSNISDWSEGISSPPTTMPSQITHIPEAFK
Sequence of Notch1 receptor with L1575P mutation (HPB-ALL cells) (P46531 19-2555 L1593P limits assumed): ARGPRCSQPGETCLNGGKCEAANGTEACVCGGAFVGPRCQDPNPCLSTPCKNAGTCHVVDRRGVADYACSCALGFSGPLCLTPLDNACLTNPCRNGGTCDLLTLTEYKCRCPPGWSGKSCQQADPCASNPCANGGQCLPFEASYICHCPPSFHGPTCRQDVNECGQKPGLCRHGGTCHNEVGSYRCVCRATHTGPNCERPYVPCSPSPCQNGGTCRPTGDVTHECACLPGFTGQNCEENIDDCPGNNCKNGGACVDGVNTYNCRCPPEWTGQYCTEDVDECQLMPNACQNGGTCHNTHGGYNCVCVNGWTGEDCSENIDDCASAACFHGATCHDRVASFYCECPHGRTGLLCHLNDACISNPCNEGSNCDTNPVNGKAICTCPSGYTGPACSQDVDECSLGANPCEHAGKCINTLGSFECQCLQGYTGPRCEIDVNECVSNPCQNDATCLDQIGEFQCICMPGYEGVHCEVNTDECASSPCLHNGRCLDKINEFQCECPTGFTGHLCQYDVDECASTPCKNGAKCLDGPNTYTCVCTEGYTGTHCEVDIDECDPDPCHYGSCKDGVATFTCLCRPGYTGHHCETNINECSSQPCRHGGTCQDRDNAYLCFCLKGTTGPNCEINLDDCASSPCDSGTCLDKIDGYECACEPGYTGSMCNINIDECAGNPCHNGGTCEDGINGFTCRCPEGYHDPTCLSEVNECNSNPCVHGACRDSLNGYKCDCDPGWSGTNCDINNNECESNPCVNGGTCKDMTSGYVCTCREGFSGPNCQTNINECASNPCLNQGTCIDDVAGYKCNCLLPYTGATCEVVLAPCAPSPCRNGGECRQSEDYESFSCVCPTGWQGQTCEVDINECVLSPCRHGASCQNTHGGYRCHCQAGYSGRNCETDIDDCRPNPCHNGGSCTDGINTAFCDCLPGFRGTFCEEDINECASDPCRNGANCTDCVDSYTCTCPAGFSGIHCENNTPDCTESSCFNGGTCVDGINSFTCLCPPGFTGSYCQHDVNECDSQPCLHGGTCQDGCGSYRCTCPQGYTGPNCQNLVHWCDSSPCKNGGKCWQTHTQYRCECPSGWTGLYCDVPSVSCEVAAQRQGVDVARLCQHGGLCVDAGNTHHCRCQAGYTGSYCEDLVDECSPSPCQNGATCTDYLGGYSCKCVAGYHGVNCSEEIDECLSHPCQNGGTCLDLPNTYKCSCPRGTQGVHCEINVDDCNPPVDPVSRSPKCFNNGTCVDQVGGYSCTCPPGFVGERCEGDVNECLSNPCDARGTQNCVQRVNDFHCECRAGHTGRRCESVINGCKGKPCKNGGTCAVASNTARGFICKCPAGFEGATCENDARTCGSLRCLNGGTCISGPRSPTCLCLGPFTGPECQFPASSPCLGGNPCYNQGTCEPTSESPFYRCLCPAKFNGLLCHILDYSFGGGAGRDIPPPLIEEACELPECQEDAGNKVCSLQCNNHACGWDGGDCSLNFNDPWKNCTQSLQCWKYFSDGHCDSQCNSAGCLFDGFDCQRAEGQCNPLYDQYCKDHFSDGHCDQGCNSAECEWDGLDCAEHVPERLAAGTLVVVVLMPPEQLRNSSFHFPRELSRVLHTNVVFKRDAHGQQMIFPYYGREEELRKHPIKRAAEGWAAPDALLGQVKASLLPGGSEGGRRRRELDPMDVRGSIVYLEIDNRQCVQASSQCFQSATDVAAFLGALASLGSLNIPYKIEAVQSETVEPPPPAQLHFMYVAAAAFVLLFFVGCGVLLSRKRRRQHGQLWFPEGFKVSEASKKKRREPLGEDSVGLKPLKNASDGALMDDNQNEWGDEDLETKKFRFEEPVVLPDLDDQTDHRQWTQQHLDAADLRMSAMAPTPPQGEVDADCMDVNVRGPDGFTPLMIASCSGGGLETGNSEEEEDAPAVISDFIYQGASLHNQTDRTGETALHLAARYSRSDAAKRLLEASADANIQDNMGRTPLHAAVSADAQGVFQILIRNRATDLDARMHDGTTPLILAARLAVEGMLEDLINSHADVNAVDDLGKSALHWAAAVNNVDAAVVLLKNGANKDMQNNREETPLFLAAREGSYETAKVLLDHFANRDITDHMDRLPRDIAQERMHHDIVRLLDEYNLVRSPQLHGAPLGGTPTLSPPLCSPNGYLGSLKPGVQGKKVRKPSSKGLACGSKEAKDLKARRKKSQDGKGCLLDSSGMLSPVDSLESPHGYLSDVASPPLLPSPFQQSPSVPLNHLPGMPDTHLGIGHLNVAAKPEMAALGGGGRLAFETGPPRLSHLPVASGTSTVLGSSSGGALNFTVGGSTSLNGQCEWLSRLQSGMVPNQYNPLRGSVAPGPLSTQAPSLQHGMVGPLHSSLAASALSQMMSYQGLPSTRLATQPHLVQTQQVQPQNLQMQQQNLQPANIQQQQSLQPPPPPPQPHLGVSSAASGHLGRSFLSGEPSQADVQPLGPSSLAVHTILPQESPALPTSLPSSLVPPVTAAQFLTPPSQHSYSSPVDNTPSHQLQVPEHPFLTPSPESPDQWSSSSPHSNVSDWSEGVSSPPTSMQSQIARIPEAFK
Sequence of Notch1 receptor with L1601P mutation (MOLT-4 cells) (P46531 19-2555, stated change not applied): as the sequence (P46531 19-2555 L1593P limits assumed) above, with P1575L counted along it
Sequence of Notch1 receptor with L1594P/D1610V mutations (DND-41 cells) (P46531 19-2555, stated change not applied): as the sequence (P46531 19-2555 L1593P limits assumed) above, with P1575L counted along it
Sequence of Notch1 receptor with L1594P mutation (ALL-SIL cells) (P46531 19-2555, stated change not applied): as the sequence (P46531 19-2555 L1593P limits assumed) above, with P1575L counted along it

## control anti-E. tenella antibody
[1]
  Firefly/Renilla Luminescence, human Notch1 reporter cells + 5 mM EDTA, 0.01 µg/mL antibody (Firefly/Renilla ratio): 267
  Firefly/Renilla Luminescence, human Notch1 reporter cells + 5 mM EDTA, 0.1 µg/mL antibody (Firefly/Renilla ratio): 299
  Firefly/Renilla Luminescence, human Notch1 reporter cells + 5 mM EDTA, 1 µg/mL antibody (Firefly/Renilla ratio): 278
  Firefly/Renilla Luminescence, human Notch1 reporter cells + 5 mM EDTA, 10 µg/mL antibody (Firefly/Renilla ratio): 257
  Firefly/Renilla Luminescence, human Notch1 reporter cells + 5 mM EDTA, 30 µg/mL antibody (Firefly/Renilla ratio): 229

## A2 antibody (Wu, Y. et al., Nature 464:1052-1057, 2010)
[2]
  Normalized Notch1^ICD level, MOLT-4 cells, 0.01 µg/ml antibody (relative to untreated): 0.962
  Normalized Notch1^ICD level, MOLT-4 cells, 0.1 µg/ml antibody (relative to untreated): 0.644
  Normalized Notch1^ICD level, MOLT-4 cells, 10 µg/ml antibody (relative to untreated): 0.043
[3]
  Normalized Notch1^ICD level, DND-41 cells, 0.001 µg/ml antibody (relative to untreated): 0.787
  Normalized Notch1^ICD level, DND-41 cells, 0.01 µg/ml antibody (relative to untreated): 0.84
  Normalized Notch1^ICD level, DND-41 cells, 0.1 µg/ml antibody (relative to untreated): 0.479
  Normalized Notch1^ICD level, DND-41 cells, 1 µg/ml antibody (relative to untreated): 0.199
  Normalized Notch1^ICD level, DND-41 cells, 10 µg/ml antibody (relative to untreated): 0.114
[4]
  Normalized Notch1^ICD level, ALL-SIL cells, 0.001 µg/ml antibody (relative to untreated): 1.56
  Normalized Notch1^ICD level, ALL-SIL cells, 0.01 µg/ml antibody (relative to untreated): 1.31
  Normalized Notch1^ICD level, ALL-SIL cells, 0.1 µg/ml antibody (relative to untreated): 0.068
  Normalized Notch1^ICD level, ALL-SIL cells, 1 µg/ml antibody (relative to untreated): 0.033
  Normalized Notch1^ICD level, ALL-SIL cells, 10 µg/ml antibody (relative to untreated): 0.043
[5]
  Normalized Notch1^ICD level, CCRF-CEM cells, 0.001 µg/ml antibody (relative to untreated): 1.12
  Normalized Notch1^ICD level, CCRF-CEM cells, 0.01 µg/ml antibody (relative to untreated): 1.28
  Normalized Notch1^ICD level, CCRF-CEM cells, 0.1 µg/ml antibody (relative to untreated): 0.424
  Normalized Notch1^ICD level, CCRF-CEM cells, 1 µg/ml antibody (relative to untreated): 0.048
  Normalized Notch1^ICD level, CCRF-CEM cells, 10 µg/ml antibody (relative to untreated): 0.027
[1]
  Firefly/Renilla Luminescence, human Notch1 reporter cells + 5 mM EDTA, 0.01 µg/mL antibody (Firefly/Renilla ratio): 312
  Firefly/Renilla Luminescence, human Notch1 reporter cells + 5 mM EDTA, 0.1 µg/mL antibody (Firefly/Renilla ratio): 172
  Firefly/Renilla Luminescence, human Notch1 reporter cells + 5 mM EDTA, 1 µg/mL antibody (Firefly/Renilla ratio): 89.9
  Firefly/Renilla Luminescence, human Notch1 reporter cells + 5 mM EDTA, 10 µg/mL antibody (Firefly/Renilla ratio): 63.5
  Firefly/Renilla Luminescence, human Notch1 reporter cells + 5 mM EDTA, 30 µg/mL antibody (Firefly/Renilla ratio): 55.2
  IC50, Notch1 signaling inhibition co-culture reporter assay: 0.18 nM
  IC50, human Notch1 reporter gene co-culture assay (DLL4-HEK293): 0.31 nM
  Maximal Inhibition (%), Notch1 signaling inhibition co-culture reporter assay: 97.7%
  Neutralization activity (Human RGA), % Inhibition (maximal): 100%
  Neutralization activity (Human RGA), IC50: 0.3 nM
  Normalized Notch1^ICD level, CCD1076SK fibroblasts on DLL4, 0.001 µg/ml antibody (relative to untreated): 0.748
  Normalized Notch1^ICD level, CCD1076SK fibroblasts on DLL4, 0.01 µg/ml antibody (relative to untreated): 0.402
  Normalized Notch1^ICD level, CCD1076SK fibroblasts on DLL4, 0.1 µg/ml antibody (relative to untreated): 0.003
  Normalized Notch1^ICD level, CCD1076SK fibroblasts on DLL4, 1 µg/ml antibody (relative to untreated): 0.003
  Normalized Notch1^ICD level, CCD1076SK fibroblasts on DLL4, 10 µg/ml antibody (relative to untreated): 0.006
[6]
  Normalized Notch1^ICD level, Jurkat cells, 0.001 µg/ml antibody (relative to untreated): 1.2
  Normalized Notch1^ICD level, Jurkat cells, 0.01 µg/ml antibody (relative to untreated): 1.17
  Normalized Notch1^ICD level, Jurkat cells, 0.1 µg/ml antibody (relative to untreated): 0.983
  Normalized Notch1^ICD level, Jurkat cells, 1 µg/ml antibody (relative to untreated): 1.15
  Normalized Notch1^ICD level, Jurkat cells, 10 µg/ml antibody (relative to untreated): 1.59
[7]
  IC50, mouse Notch1 reporter gene co-culture assay (DLL4-HEK293): 0.32 nM
  Neutralization activity (murine RGA), % Inhibition (maximal): 86%
  Neutralization activity (murine RGA), IC50: 0.2 nM
[8]
  IC50, MTS viability assay of HPB-ALL leukemia cells: 1.85 nM
  Normalized Notch1^ICD level, HPB-ALL cells, 0.001 µg/ml antibody (relative to untreated): 0.852
  Normalized Notch1^ICD level, HPB-ALL cells, 0.01 µg/ml antibody (relative to untreated): 1.15
  Normalized Notch1^ICD level, HPB-ALL cells, 0.1 µg/ml antibody (relative to untreated): 0.33
  Normalized Notch1^ICD level, HPB-ALL cells, 1 µg/ml antibody (relative to untreated): 0.038
  Normalized Notch1^ICD level, HPB-ALL cells, 10 µg/ml antibody (relative to untreated): 0.041
[9]
  Neutralization activity (Human RGA), % Inhibition: 99.1%
  Neutralization activity (Human RGA), IC50: 0.27 nM
[10]
  Neutralization activity (murine RGA), % Inhibition: 82%
  Neutralization activity (murine RGA), IC50: 0.36 nM
[11]
  pKd: 8.53
